PMC10902388 (Nature Communications, 2024)
Numbering of substitutions follows the chain as printed. Numbers in names are those of the source.

B1: MBP-16E6(4C4S) F76A (natural protein)
chain: MHQKRTAMFQDPQERPRKLPQLCTELQTTIHDIILECVYCKQQLLRREVYDFAFRDLCIVYRDGNPYAVCDKCLKAYSKISEYRHYSYSLYGTTLEQQYNKPLSDLLIRCINCQKPLSPEEKQRHLDKKQRFHNIRGRWTGRCMSCSRSSRTRRETQL
notes: Mutant of m2; source: E. coli BL21(DE3), purified (MBPTrap, SEC); not shown: MBP, N-terminal, kept
B2: MBP-16E6(4C4S) Y88A (natural protein)
chain: B1 chain with A76F, Y88A
notes: as for B1
B3: MBP-16E6(4C4S) R84A (natural protein)
chain: B1 chain with A76F, R84A
notes: as for B1
B4: MBP-16E6(4C4S) R62A (natural protein)
chain: B1 chain with R62A, A76F
notes: as for B1
B5: MBP-16E6(4C4S) Y77A (natural protein)
chain: B1 chain with A76F, Y77A
notes: as for B1
B6: MBP-16E6(4C4S) S89A (natural protein)
chain: B1 chain with A76F, S89A
notes: as for B1
B7: MBP-16E6(4C4S) R84E (natural protein)
chain: B1 chain with A76F, R84E
notes: as for B1
B8: MBP-16E6(4C4S) Y86A (natural protein)
chain: B1 chain with A76F, Y86A
notes: as for B1
B9: MBP-16E6(4C4S) L57A (natural protein)
chain: B1 chain with L57A, A76F

These binders were tested against T1, full-length human E6AP (C-terminal TEV-6xHis-Avi) (human, UniProt Q05086 1-875, biotin on the Avi tag (BirA biotin-protein ligase) in the SPR experiments) (assay: cell-based or functional assay). Conditions: not given.
T1 sequence (Q05086 whole entry): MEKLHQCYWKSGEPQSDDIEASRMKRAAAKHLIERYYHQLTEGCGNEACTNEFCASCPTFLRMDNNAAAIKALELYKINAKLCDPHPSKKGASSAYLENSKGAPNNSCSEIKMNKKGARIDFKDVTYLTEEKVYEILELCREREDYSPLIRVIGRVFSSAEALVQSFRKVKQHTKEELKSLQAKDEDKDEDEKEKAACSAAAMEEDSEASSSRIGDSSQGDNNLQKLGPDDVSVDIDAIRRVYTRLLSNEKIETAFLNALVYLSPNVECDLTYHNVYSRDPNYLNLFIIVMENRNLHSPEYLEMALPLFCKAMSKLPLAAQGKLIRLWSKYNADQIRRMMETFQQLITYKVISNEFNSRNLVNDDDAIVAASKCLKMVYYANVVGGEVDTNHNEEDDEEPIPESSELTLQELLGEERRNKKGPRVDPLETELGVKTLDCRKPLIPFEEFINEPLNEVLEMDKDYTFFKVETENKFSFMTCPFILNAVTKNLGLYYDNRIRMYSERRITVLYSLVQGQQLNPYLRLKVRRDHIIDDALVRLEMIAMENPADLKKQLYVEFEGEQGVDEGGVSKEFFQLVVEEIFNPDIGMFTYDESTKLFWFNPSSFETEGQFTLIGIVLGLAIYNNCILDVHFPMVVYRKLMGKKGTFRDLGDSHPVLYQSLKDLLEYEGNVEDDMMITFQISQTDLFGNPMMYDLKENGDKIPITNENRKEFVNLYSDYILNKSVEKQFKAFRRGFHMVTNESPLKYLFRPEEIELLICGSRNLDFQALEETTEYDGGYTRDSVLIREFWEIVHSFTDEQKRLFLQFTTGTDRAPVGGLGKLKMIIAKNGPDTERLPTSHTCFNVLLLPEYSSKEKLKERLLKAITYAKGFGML
For B1, the “unmodified E6AP remaining at 30 min, E6AP autoubiquitination” value (from here on “unmodified E6AP remaining at 30 min”) was 82% and the “unmodified p53 remaining at 30 min, in vitro ubiquitination of full-length p53” value (from here on “unmodified p53 remaining at 30 min”) was 59.5%.
In the case of B2, the “unmodified E6AP remaining at 30 min” value is reported as 21.2% and the “unmodified p53 remaining at 30 min” value is reported as 19.2%.
With B3 the “unmodified E6AP remaining after 30 min, E6AP autoubiquitination” value (“unmodified E6AP remaining after 30 min” for short) was 64.9%.
With B4 the “unmodified E6AP remaining after 30 min” value was 9.3%.
B5 was tested, and the “unmodified E6AP remaining at 30 min” value was 21.6% and the “unmodified p53 remaining at 30 min” value was 22.4%.
In the case of B6, the “unmodified E6AP remaining at 30 min” value is reported as 33.1% and the “unmodified p53 remaining at 30 min” value is reported as 57.3%.
For B7, the “unmodified E6AP remaining after 30 min” value was 64.9%.
With B8 the “unmodified E6AP remaining at 30 min” value was 56.5% and the “unmodified p53 remaining at 30 min” value was 44.2%.
With B9 the “unmodified E6AP remaining after 30 min” value was 45.6%.

The binders below were run against T1, full-length human E6AP (C-terminal …) (assay: SPR). Conditions: both partners purified.
In the case of B1, the Kd is reported as 8.5 nM.
With B2 the Kd was 5.4 nM.
Work on B3 yielded a Kd of 34.4 nM.
For B4, the Kd was 2.2 nM.
With B5 the Kd was 0.742 nM.
Binder B6 has a Kd of 1.71 nM.
With B7 the Kd was 195 nM.
B8 showed a Kd of 6.3 nM.
